Measured values as given in patent US20250189530A1 (STCUBE, published 2025).

What was measured:
[1] = biological target: T1, BTN1A1 peptide 4 Mutant 8 (T368A) (human); test: KD against BTN1A1-pep4- WT
T1 construct: The entry already carries the mutation; also called BTN1A1-pep4- Mutant 8
T1 peptide: EVEVGDRADWAIGVC

[2] = biological target: T2, BTN1A1 peptide 4 Mutant 9 (D369A) (human); test: KD against BTN1A1-pep4- WT
T2 construct: The entry already carries the mutation; also called BTN1A1-pep4- Mutant 9
T2 peptide: EVEVGDRTAWAIGVC

[3] = biological target: T3, BTN1A1 peptide 4 Mutant 10 (W370A) (human); test: KD against BTN1A1-pep4- WT
T3 construct: The entry already carries the mutation; also called BTN1A1-pep4- Mutant 10; mutant peptide #10
T3 peptide: EVEVGDRTDAAIGVC

[4] = biological target: T4, BTN1A1 peptide 4 Mutant 11 (A371G) (human); test: KD against BTN1A1-pep4- WT
T4 construct: The entry already carries the mutation; also called BTN1A1-pep4- Mutant 11
T4 peptide: EVEVGDRTDWGIGVC

[5] = biological target: T5, BTN1A1 peptide 4 Mutant 12 (I372A) (human); test: KD against BTN1A1-pep4- WT
T5 construct: The entry already carries the mutation; also called Mutant 12 (1372A); BTN1A1-pep4- Mutant 12
T5 peptide: EVEVGDRTDWAAGVC

[6] = biological target: T6, TRIM11 peptide; test: KD against BTN1A1-pep4- WT
T6 peptide: EVEVGDRTSWALGVC

[7] = biological target: T7, BTN1A1 Peptide 4 (human); test: KD against BTN1A1-pep4- WT
T7 construct: also called BTN1A1-pep4- WT; Pep4
T7 peptide: EVEVGDRTDWAIGVC

[8] = biological target: T8, BTN1A1 peptide 4 Mutant 5 (G365A) (human); test: KD against BTN1A1-pep4- WT
T8 construct: The entry already carries the mutation; also called BTN1A1-pep4- Mutant 5
T8 peptide: EVEVADRTDWAIGVC

[9] = biological target: T9, BTN1A1 peptide 4 Mutant 6 (D366A) (human); test: KD against BTN1A1-pep4- WT
T9 construct: The entry already carries the mutation; also called BTN1A1-pep4- Mutant 6; mutant peptide #6
T9 peptide: EVEVGARTDWAIGVC

[10] = biological target: T10, BTN1A1 peptide 4 Mutant 7 (R367A) (human); test: KD against BTN1A1-pep4- WT
T10 construct: The entry already carries the mutation; also called BTN1A1-pep4- Mutant 7
T10 peptide: EVEVGDATDWAIGVC

[11] = biological target: TRIM variant expressed by HEK293T cells; test: western blot, STC43H11-1 band over Flag band
[12] = biological target: peptide 4 WT expressed by HEK293T cells (human); test: western blot, STC43H11-1 band over Flag band
[13] = biological target: peptide 4 variant A371G expressed by HEK293T cells (human); test: western blot, STC43H11-1 band over Flag band
[14] = biological target: peptide 4 variant C375A expressed by HEK293T cells (human); test: western blot, STC43H11-1 band over Flag band
[15] = biological target: peptide 4 variant D366A expressed by HEK293T cells (human); test: western blot, STC43H11-1 band over Flag band
[16] = biological target: peptide 4 variant D369A expressed by HEK293T cells (human); test: western blot, STC43H11-1 band over Flag band
[17] = biological target: peptide 4 variant E361A expressed by HEK293T cells (human); test: western blot, STC43H11-1 band over Flag band
[18] = biological target: peptide 4 variant E363A expressed by HEK293T cells (human); test: western blot, STC43H11-1 band over Flag band
[19] = biological target: peptide 4 variant G365A expressed by HEK293T cells (human); test: western blot, STC43H11-1 band over Flag band
[20] = biological target: peptide 4 variant G373A expressed by HEK293T cells (human); test: western blot, STC43H11-1 band over Flag band
[21] = biological target: peptide 4 variant I372A expressed by HEK293T cells (human); test: western blot, STC43H11-1 band over Flag band
[22] = biological target: peptide 4 variant R367A expressed by HEK293T cells (human); test: western blot, STC43H11-1 band over Flag band
[23] = biological target: peptide 4 variant T368A expressed by HEK293T cells (human); test: western blot, STC43H11-1 band over Flag band
[24] = biological target: peptide 4 variant V362A expressed by HEK293T cells (human); test: western blot, STC43H11-1 band over Flag band
[25] = biological target: peptide 4 variant V364A expressed by HEK293T cells (human); test: western blot, STC43H11-1 band over Flag band
[26] = biological target: peptide 4 variant V374A expressed by HEK293T cells (human); test: western blot, STC43H11-1 band over Flag band
[27] = biological target: peptide 4 variant W370A expressed by HEK293T cells (human); test: western blot, STC43H11-1 band over Flag band
[28] = biological target: T11, LDHB peptide VIKLKGYTNWAIGLS; test: SPR sensorgrams (Response in RU), series 15.625-500 nM
T11 construct: also called l-lactate dehydrogenase B chain (LDHB) isoform X1 peptide
T11 peptide: VIKLKGYTNWAIGLS

[29] = biological target: T12, MALRD1 peptide TQDSEDDLDWAIGSR; test: as above
T12 construct: also called MAM and LDL-receptor class A domain-containing protein 1 isoform X1 peptide
T12 peptide: TQDSEDDLDWAIGSR

Fold change [1]: 21 fold
Fold change [2]: 463 fold
Fold change [3]: 59 fold
Fold change [4]: 16 fold
Fold change [5]: 126 fold
Fold change [6]: 7360 fold
Fold change [7]: 1 fold
Fold change [8]: 20 fold
Fold change [9]: 160 fold
Fold change [10]: 4 fold
Normalized Fold [11]: -0.00102
Normalized Fold [12]: 0.478
Normalized Fold [13]: 0.045
Normalized Fold [14]: 1.32
Normalized Fold [15]: -0.0409
Normalized Fold [16]: 0.000853
Normalized Fold [17]: 0.231
Normalized Fold [18]: 0.323
Normalized Fold [19]: 0.414
Normalized Fold [20]: 0.0107
Normalized Fold [21]: 0.000608
Normalized Fold [22]: 0.239
Normalized Fold [23]: 0.0496
Normalized Fold [24]: 1.18
Normalized Fold [25]: 0.128
Normalized Fold [26]: 0.237
Normalized Fold [27]: 0.0394
binding result [28]: no binding (tested: 500 nM)
binding result [29]: no binding (tested: 500 nM)
B1: STC43H11-1 (antibody, V domains shown)
VH: QSLEESGGRLVTPGGSLTLTCTVSGIDLSSYAMGWVRQAPGEGLEWIGSIGTGGGTGYASWAKGRFTISKTSTTVDLKMTSLTASDTATYFCATSNLWGPGTLVTVSS
VL: QVLTQTASPVSAAVGGTVTINCQASQSVYNNNRCSWFQQKPGQPPKRLIYHTSTLDSGVPSRFKGSGSGTQFTLTISDVQCDDAATYYCLGNYDCSRADCAAFGGGTEVVVK
notes: From immunized New Zealand rabbits; IgG heavy chain and Kappa light chain; also called clone #43H11; Clone 43H11
